Measurements as given in patent publication US20100160228.

Biological target: VEGFR2 (vascular endothelial growth factor receptor 2), expressed from plasmid in HEK293 cells, P35968
Sequence (P35968 20-1356): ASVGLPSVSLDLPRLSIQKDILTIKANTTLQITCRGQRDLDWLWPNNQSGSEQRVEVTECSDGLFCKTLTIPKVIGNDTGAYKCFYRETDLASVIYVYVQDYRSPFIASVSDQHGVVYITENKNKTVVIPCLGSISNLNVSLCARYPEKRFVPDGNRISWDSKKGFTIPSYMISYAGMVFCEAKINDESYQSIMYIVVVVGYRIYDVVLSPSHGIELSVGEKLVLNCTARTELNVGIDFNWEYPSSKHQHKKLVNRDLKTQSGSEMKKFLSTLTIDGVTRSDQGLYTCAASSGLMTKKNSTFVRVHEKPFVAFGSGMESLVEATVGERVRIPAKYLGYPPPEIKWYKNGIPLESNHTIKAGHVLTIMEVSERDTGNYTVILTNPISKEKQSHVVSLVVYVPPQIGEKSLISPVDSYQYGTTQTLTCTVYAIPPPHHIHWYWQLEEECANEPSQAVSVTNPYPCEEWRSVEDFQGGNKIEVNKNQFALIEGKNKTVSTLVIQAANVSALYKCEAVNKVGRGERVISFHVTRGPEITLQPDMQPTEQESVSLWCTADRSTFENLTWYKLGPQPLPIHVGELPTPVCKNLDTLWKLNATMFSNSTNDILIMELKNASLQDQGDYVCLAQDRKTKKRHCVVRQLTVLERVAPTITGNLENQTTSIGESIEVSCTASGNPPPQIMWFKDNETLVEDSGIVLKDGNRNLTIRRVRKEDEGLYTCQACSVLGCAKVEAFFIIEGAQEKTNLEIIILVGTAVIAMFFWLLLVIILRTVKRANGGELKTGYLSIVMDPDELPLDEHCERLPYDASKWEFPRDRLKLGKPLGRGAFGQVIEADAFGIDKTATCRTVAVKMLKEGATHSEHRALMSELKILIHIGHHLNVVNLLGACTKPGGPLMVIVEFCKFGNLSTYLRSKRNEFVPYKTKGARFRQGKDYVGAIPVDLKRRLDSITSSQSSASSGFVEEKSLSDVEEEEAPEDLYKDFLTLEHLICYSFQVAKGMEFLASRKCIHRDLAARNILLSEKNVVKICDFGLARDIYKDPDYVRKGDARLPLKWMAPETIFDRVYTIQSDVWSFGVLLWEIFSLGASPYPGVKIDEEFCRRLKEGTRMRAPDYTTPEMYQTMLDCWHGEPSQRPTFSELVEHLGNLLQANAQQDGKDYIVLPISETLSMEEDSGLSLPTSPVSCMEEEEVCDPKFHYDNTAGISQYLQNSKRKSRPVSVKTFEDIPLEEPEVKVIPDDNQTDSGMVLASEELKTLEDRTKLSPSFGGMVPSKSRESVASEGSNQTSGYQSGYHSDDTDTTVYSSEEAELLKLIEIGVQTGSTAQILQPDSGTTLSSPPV

B1: recombinant, purified TCPTP (T-cell protein tyrosine phosphatase) (protein)
chain: MPTTIEREFEELDTQRRWQPLYLEIRNESHDYPHRVAKFPENRNRNRYRDVSPYDHSRVKLQNAENDYINASLVDIEEAQRSYILTQGPLPNTCCHFWLMVWQQKTKAVVMLNRIVEKESVKCAQYWPTDDQEMLFKETGFSVKLLSEDVKSYYTVHLLQLENINSGETRTISHFHYTTWPDFGVPESPASFLNFLFKVRESGSLNPDHGPAVIHCSAGIGRSGTFSLVDTCLVLMEKGDDINIKQVLLNMRKYRMGLIQTPDQLRFSYMAIIEGAKCIKGDSSIQKRWKELSKEDLSPAFDHSPNKIMTEKYNGNRIGLEEEKLTGDRCTGLSSKMQDTMEENSESALRKRIREDRKATTAQKVQQMKQRLNENERKRKRPRLTDT
in vitro dephosphorylation of VEGFR2 tyrosines 996, 1175 and 1214: TCPTP showed a striking specificity to two tyrosine residues studied (Y1214 and Y996), while tyrosine 1175 was not a TCPTP target
in vitro dephosphorylation of isolated VEGFR2 (immunoblot with phospho-specific VEGFR2 antibodies): purified, recombinant TCPTP was able to dephosphorylate isolated VEGFR2 in vitro
